Measured values taken from US20220235117A1.
Numbering of substitutions follows the chain as printed. Names and notes keep the numbering of the source.

What was measured:
[1] = molecular target: hepatitis B virus surface antigen (HBsAg) (hepatitis B virus); assay: ELISA, commercial HBsAg plate, well held 30 min in PBS pH 6.0 after binding, GAH-HRP secondary antibody, OD(450/630)
[2] = molecular target: hepatitis B virus surface antigen (HBsAg) (hepatitis B virus); assay: ELISA, commercial HBsAg plate, well held 30 min in PBS pH 7.4 after binding, GAH-HRP secondary antibody, OD(450/630)
[3] = molecular target: hepatitis B virus surface antigen (HBsAg) (hepatitis B virus); assay: SPR, Biacore 3000, HBsAg on CM5 chip, antibody as analyte, pH 7.4
[4] = molecular target: hepatitis B virus surface antigen (HBsAg) (hepatitis B virus); assay: ELISA on commercial HBsAg plate, pH 6.0
[5] = molecular target: hepatitis B virus surface antigen (HBsAg) (hepatitis B virus); assay: ELISA on commercial HBsAg plate, pH 7.4
[6] = molecular target: hepatitis B virus surface antigen (HBsAg) (hepatitis B virus); assay: ELISA on commercial HBsAg plate, ratio of EC50 at pH 6.0 to pH 7.4

B1: anti-HBV humanized antibody M1D (antibody, V domains shown)
VH: QVQLQESGPGLVKPSETLSLTCTVSGGSITSNFWSWIRQPPGKGLEWIGYISGSGTYTDYNPSLKSRVTISVDTSKNQFSLKLSSVTAADTAVYYCARSHDYGSNDYAFDFWGQGTTVTVSS
VL: DIQMTQSPSSLSASVGDRVTITCRATQDISSSLNWYQQKPGKAPKLLIYYANRLQSGVPSRFSGSGSGTDFTLTISSLQPEDFATYYCQQYHSLPLTFGGGTKVEIK
B1 showed an EC50 (read off the curve) [1] of 0.01 µg/mL, an EC50 (read off the curve) [2] of 0.01 µg/mL and a Kd [3] of 0.534 nM.

B2: A42-23 (antibody, human IgG1, kappa, V domains shown)
VH: B1 VH with S31H, S54Y, G55D, S104H, N105H
VL: DIQMTQSPSSLSASVGDRVTITCRATQDIHHSLNWYQQKPGKAPKLLIYYANRLQSGVPSRFSGSGSGTDFTLTISSLQPEDFATYYCQQYHYLPLTFGGGTKVEIKR
In the case of B2, the EC50 [4] is reported as 0.345 µg/mL, the EC50 [5] is reported as 0.0127 µg/mL and the EC50(pH 6.0)/EC50(pH 7.4) [6] is reported as 27.2.
